Experiment: in vitro cumulative release from dual drug stent
Assay type: physicochemical
Details: insulin and Pimecrolimus eluting stent
Protocol: FIG. 6a is a graph showing the in vitro cumulative release of insulin over time from a dual drug stent. FIG. 6b is a graph showing the in vitro cumulative release of pimecrolimus over time from a dual drug stent. A stent for eluting insulin and Pimecrolimus was made substantially according to the description in A above. The stent was loaded with a base region, an insulin drug region, and a Pimecrolimus cap region. The base contained PLGA and/or PEVA; the drug contained insulin 250 μg total drug load (TDL) and PLGA; and the cap contained PEVA, PLGA/PLA-PCL and Pimecrolimus 300 μg TDL, and 6 deposits of PLGA/PLA-PCL. FIGS. 6A and 6B show the release profile of the insulin and Pimecrolimus eluting stent, respectively, over time. As shown in FIG. 6A at least about 50% of the insulin is released in the first 48 hours.

insulin
insulin released (in vitro cumulative release) (insulin 250 μg TDL in PLGA, in the first 48 hours, FIG. 6A): at least 50%

CC[C@@H]1/C=C(\C)C[C@H](C)C[C@H](OC)[C@H]2O[C@@](O)(C(=O)C(=O)N3CCCC[C@H]3C(=O)O[C@H](/C(C)=C/[C@@H]3CC[C@H](Cl)[C@H](OC)C3)[C@H](C)[C@@H](O)CC1=O)[C@H](C)C[C@@H]2OC [Pimecrolimus]
release profile of Pimecrolimus (in vitro cumulative release) (Pimecrolimus 300 μg TDL in cap region, FIG. 6B): high initial release rate followed by a slower prolonged release

Reference: patent publication US20090252778A1, “METHODS AND DEVICES FOR REDUCING TISSUE DAMAGE AFTER ISCHEMIC INJURY” (INNOVATIONAL HOLDINGS LLC., priority 2006, published 2009)
